# The nanobody polyreactivity screen of Harvey et al. (2022)
# Test: yeast display, Sf9 membrane polyspecificity reagent, FACS + sequencing; frameworks hold sequencing errors
# Procedure, shortened: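 Synthetic nanobody libraries on Saccharomyces cerevisiae BJ5465 were galactose-induced for 36–48 hours, stained 1 hour at 4 °C with 10% biotinylated, detergent-solubilized Sf9 membrane reagent and enriched on streptavidin microbeads. FACS then separated cells into low and high (top ~1%) gates by anti-HA (expression) and streptavidin (reagent binding) fluorescence. Genes were colony-PCR amplified, MiSeq 2 × 250 sequenced and CDR-length filtered. A clone's polyreactivity label is that of its gate of origin.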
row,Sequence,polyreactivity (PSR sort gate)
1,QVQLVESGGGLVQAGCSLRLSCAASGFIFTSYAMGWYRQAPGKERDLVAAITRSGGRTYYADSVKGRFTISLDNAKITVYLQMNSLKPEDTAVYYCAAVTFYQSPARGYWGQGTQVTVSS,high polyreactivity
2,QVQLVESGGGLVQAGCSLRLSCAASGFTFAGNAMGWYRQAPGKERELVAAISRRGGSTYYADSVKGRFTISRDNAKNTVYLKMNSLKPEDNAVYYCAAVYRYDYDYWGQGNQVTVSS,high polyreactivity
3,QVQLVESGGGLVQAGCSLRLSCAASGFTYARYTMGWYRQAPGKERELVAAISSRGSSTYYADSVKGRFTISRDNAKNSVYLQMNCLKPEDTAVYYCAAPPRYGYDYWGQGTQVTVSS,high polyreactivity
4,QVQLVESGGGLVQAGCSLRLSCAASGIIFGYYAMGWYRQAPVKERELVAAISSRGSRTYYSDSLKGRFTISRDNAKNTVYLQMNSLIPEDTAVYYCAVRGKFDYWGQGTQVTVSS,high polyreactivity
5,QVQLVESGGGLVQAGCSLRLSCAASGITVYDYDMGWYRQAPGKERELVAAITWNGGSTYYADSVKGRFTISRDNAKNTVYLQMNSLKPEDTAVYYCAAESYYIYDYWGQGTQVTVSS,high polyreactivity
6,QVQLVESGGGLVQAGCSLRLSCAASGLIFLPYAMGWYIQAPGKERELVAAINFSTGSTHYADSVKGRFTISRDNAKNTVFLQMNSLKPEDTAVYYCAVYTSQIYGYWGQGTQVNVSS,high polyreactivity
7,QVQLVESGGGLVQAGCSLRLSCAASGLTFAKYAMGWYRHAPGKEWELVAAISRSGGSTYYADSVKGRFTISRDNAKNTVYLQMNSLKPEDTAVYYCAKSSGTLWITKYDYWGQGTQVTVSS,low polyreactivity
8,QVQLVESGGGLVQAGCSLRLSCAASGLTFHWYTMGWYRQAPGKERELVATINSGGSTDYADSVKGRFTISRDNAKNTVYLQMNSLKPEDTAVYYCNAEYGYSGVGDDYWGQGTQVTVSS,low polyreactivity
9,QVQLVESGGGLVQAGCSLRLSCAASGRIFRLNAMGWYRQAPGKERELVAAISSSGGSTYYADSVKGRFTISRDNAKNTVYLQMNSLKPEDTAVSYCAKYPVGGYDYWGQGPQVTVSS,low polyreactivity
10,QVQLVESGGGLVQAGCSLRLSCAASGRIFYTYAMGWYRQAPAKEREFVAGIRWSGSSTYYADSVMGRFRISRDNAKYTVYFQMLSMKPEDTAVYYCAKRYVWGDKRYWQGYDYWGQGNQVTVSS,high polyreactivity
11,QVQLVESGGGLVQAGCSLRLSCAASGRTFPYYAMGWYRQAPGKERELVARIRSDGSTNYADSVKGRFTISRDNAKNTVYLQMNSLKPEDTAVYYCTADVGFEPPWYDWSWDNEYWGQGTQVSVSS,low polyreactivity
12,QVQLVESGGGLVQAGCSLRLSCAASGRTFVHYTMGWYRQAPGKERELVATISTSGGSTSYADSVKGRFTISRDNAKNTVYLQMNSLKPEDTAVYYCAARWYFPDRVKYDYWGQGTQVTVSS,low polyreactivity
13,QVQLVESGGGLVQAGCSLRLSCAASGRTFVWYEMGWYRQATGKERELVAAINKRGTSTYYADSVKGRFTISRDNAKNTVYLQMNSLNPEVTAVYYCAVEYIYWFHSRSSYIYDYWGQGTQVTVSS,low polyreactivity
14,QVQLVESGGGLVQAGCSLRLSCAASGRTIGYYAMGLYRPAPGKERELVAAISTRGGRTSYADSVKGRFTISRDNAKYTVYFQMNSLKPEDTAVYYCAADGVRVHKDPTGHYYWGQGTQVTVSS,high polyreactivity
15,QVQLVESGGGLVQAGCSLRLSCAASGSIFAAYPMGWYRQAPGKERELVAAISRSCGSTYYADSVKGRFTISRDNAKNTVYLQMNSLKPEDTAVYYCAADTYGYRHDNYDYWGQGTQVTVSS,low polyreactivity
16,QVQLVESGGGLVQAGCSLRLSCAASGSIFPCNAMGWYRQAPGKERELVAAISRGCSTNYADSVKGRFTISRDNAKNTDYLQMNSLKPEDTSVFDCAVYYYSYHGGRGYDYWGQGTQVTVSS,high polyreactivity
17,QVQLVESGGGLVQAGCSLRLSCAASGSIFRVYAMGWYRQAPGKEREFVAAITRSGGSTYYADSVKGRFTISRDNAKNTVYLQMNSLKPEDTAVYYCNAVYYSWAQSARFDYWGQGTQVTVSS,low polyreactivity
18,QVQLVESGGGLVQAGCSLRLSCAASGSIFSAYSMGWYRPAPGKEREFVAAITRRGGNTYYADSVKGRFTISRDNAKNTVYLQMKSLKPEDTAVYYCAASYNGLWHGDYDYWGQGTQVTVSS,low polyreactivity
19,QVQLVESGGGLVQAGCSLRLSCAASGSIFYSNAMGWYRQAPGKERELVAAITRRGGSTYYADSVKGRFTISRDNAKNTVYLQMNSLKPEDTAVYYCYADGSARTPYYYRWYRYGYWGQGTQVSVSS,high polyreactivity
20,QVQLVESGGGLVQAGCSLRLSCAASGSTFFPNGMGWYRQAPGKERELVAAITQDGGSTYYADSVKGRFTISRDNAKNTVYLQMNSLKPEDTAVYYCAASAGPYYEYGYWGQGTQVTVSS,low polyreactivity
21,QVQLVESGGGLVQAGCSLRLSCAASGSTFFRYAMGWYRQAPGKERELVAAITSGGNTYYADSVKGRFTISRDNAKITVYLQMNSMKPEDTAVYYCAADVYHWIHEYDYWGQGTQVSVSS,low polyreactivity
22,QVQLVESGGGLVQAGCSLRLSCAASGSTFRKYAMGWYRQAPGKEREFVAAITWSTGTTYYADSVKGRFTISRDNAKNTVYLQMNSLKPEDTAVYYFAADSQPPHELYESIEHESWGQGTQVTVSS,low polyreactivity

row,Sequence,polyreactivity (PSR sort gate)
1,QVQLVESGGGLVQAGCSLRLSCAASGSTFRSYAMGWYRQAPGKERELVASISGDGDSTYYADSVKGRFTISRDNAKNTVYLQMNSLKPEDTAVYYCNKGLHNGEVDYDYWGQGTQVTVSS,low polyreactivity
2,QVQLVESGGGLVQAGCSLRLSCAASGSTFWFNGMGWYRQAPGKERELVAVITFSTGSTSYADSVKGRFTISRDDAKNTVYLQMNSLKAEDTAGYYCAAEYVIYYCFEWLDLDYWGQGTQVTVSS,high polyreactivity
3,QVQLVESGGGLVQAGCSLRLSCAASGYMGWYRQAPGKERELVATISGSGGSTYYADSVKGRFTISRDNAKNTVYLQMNSLKPEDTAVYYCTTEIWGVNRSGYDYWGQGTQVTVSS,low polyreactivity
4,QVQLVESGGGLVQAGCSLRLSCAASGYTSRRNVMGWYRQAPGNERELVAAINSAGSTTYADSVKGRFTISRVNAKNTVYLQMNSLKPEDTAVYYCAASVYTYNYDLHKSYYLGQGTQVTVSS,high polyreactivity
5,QVQLVESGGGLVQAGCSLRLSCASSGRTFSEYAMGWYRQAPGKERELVAAISKGGGSTYYADSVKGRCTISRDNAKNTVYLQMNSLKPEDNAVYYCAKSSHAREYYYWGQGTQVTVSS,low polyreactivity
6,QVQLVESGGGLVQAGCSLRLSCASSGSTFEYYAKGRYRQAPGKERELGAAINGIGGSTTYADSVKGRFTISRDNAKNNVYFQMNSLKPEDTAVYYCNADVARSNSQASAYDYWGQGTQVTVSS,low polyreactivity
7,QVQLVESGGGLVQAGCSLRLSCDASGSIYKYYSMGWYRQAPGKERELVAAISKNGGSTYYADSVKGRFTISRDNAKYTVYLQMNSLKPEDTAVYYCAAEEGYRWVRYNYWGQGTQVTVSS,high polyreactivity
8,QVQLVESGGGLVQAGCSLRLSSAASGSIFWVNAMGWYRQAPGQERELVAAITWSAGSTYYADSVKGRFTISRDNAKYTVYVEMNSLKPEDTAVYYCAAGGAWYYWTLDYWGLGTQVTVSS,low polyreactivity
9,QVQLVESGGGLVQAGCSLRLSSAASGSTFRANAMGWYRQAPGKERELVAAITSGGSTNYADSVKGRFTISRDNAKNTVYLQMNRRKPEDTAVYYCADESYQEHSFYVYYGYDYWGQGTQVTVSS,low polyreactivity
10,QVQLVESGGGLVQAGCSLRLSWAASGRTFFSNAMGWYRQAPGKERELVAAISNGDNTYYADSVKGRFTISRDNAKNTVYLQMNSLKPEDTAVYYCAKDYRWVWRKYGYWGQGTQVTVSS,low polyreactivity
11,QVQLVESGGGLVQAGGCLRLSCAASGFTFKTYAMGWYRQAPGKEREFVAAITTRVGSTYYADSVKGRFSISRDNAKNTVYLQMISLKPEDTAVYYCNYNFNYPYYRYGYWGQGTQVTVSS,high polyreactivity
12,QVQLVESGGGLVQAGGCLRLSCAASGSSFGYNGMGWYSQAPGKEREVVAAISSGGNTYYGDSVNGRFTISRDNAKNTVYLQMNSLKPEDTAVYYCNADYVASGYDFDEGYWGQGTQVTVST,low polyreactivity
13,QVQLVESGGGLVQAGGCLRLSCDASGITFDYYAMGWYRQAPVKESELVAAITNDGRTYNADSVKGRFTISLDNAKNTVYLQMNSLKPEDTADYYCARLTYYVNGRYDYWGQGTQVTVSS,low polyreactivity
14,QVQLVESGGGLVQAGGGLRLSCAACGSIFVYYVMGWYRQAPGKERELVAAINSDGDGTYYADSVKGRFTISRDNAKNTVYLQMNSLKPEDTAVYYCNALNPKSYDYWGQGTQVTVSS,low polyreactivity
15,QVQLVESGGGLVQAGGGLRLSCAASGRIFFYAMGWYRQAPGKQRELVAAISWSGGSTYYADSVKGRFTISRDNAKNTVYLQMNSLKPEDTAVYYCAADYEGWGYDYRGDYWGQGTQLTVSS,low polyreactivity
16,QVQLVESGGGLVQAGGGLRLSCAASGRTFYIYAMGWYRQAPGKERELVAAISWRGGSTYYADSVKGRFTISRDNAKNTGYLQMNSLKPEDTAVYYCAKVYARTVGWFNYWGQGTQVTVSS,high polyreactivity
17,QVQLVESGGGLVQAGGGLRLSCAASGSILPEYAMGWYRQAPGKERELVAAITTSGGSTYYADSVKGRFTISRDNAKNTVYLQMNSLKPEDTAVYYCAVEYLVYLDYTYDYWGQGTQVTVSS,low polyreactivity
18,QVQLVESGGGLVQAGGGLRLSCAASGTFKRNAMGWYRQAPGKERELVATITRTGSTTYADSVKGRFTISRDNAKNTVYLQMNSLKPEDTAVYYCNRVTKEYGLRQYYYWGQGTQVTVSS,low polyreactivity
19,QVQLVESGGGLVQAGGGLRLSCAASGTFKRNAMGWYRQAPGKERELVATITRTGSTTYADSVKGRFTISRDNAMNTVYLQMYSQKPEDTAVYYCAAGYPPEDPEDYWGQGTQVTVSS,low polyreactivity
20,QVQLVESGGGLVQAGGILRISCAASGRTSYWYAMAWYRQAPGKERELVADISWSGGSTYYADSVKGRFTISRDNAKNTVYLQMNSLNPEDTAVYYCIGAEQKYSIYYAFDTGPYDYWGQGTQVTVSS,low polyreactivity
21,QVQLVESGGGLVQAGGILRISCAASGSTFGWYTMGWYRQAPGKERELVAAITSRGTRTSYADSVTGRFTISRDIAKNTVYLQMNSLKTEDTAVYYCAARVFRGLGEYYWGQGTQVTVSS,high polyreactivity
